experiment: soluble on expression in E. coli; label from the status in PepcDB or PDB records

Sequence	soluble on expression in E. coli
MKVEIEPQTLRYQPKEIRETKRPTIAYEHPNALTYLKSMKENIIRFANKKSLYTQHDEYIKNVFMDERVNLKYHCESIVSYIAEAFIHYSVWDHSHAYYPGRPSQQTARTDALEGTSRTLPTLAAWLHANGRSNTIITGLNQQPILVPEILRKAFLAGTNPQHKGYWGTLHHCDQRVCEGADLALALWMSKEWVWDCFSIDEKCQIITWFKQVNQCETVDNNWHLFVLTVQIVLKALTGEDEVQYDKYERVKEFYVGDGWFRDGAKGNYDYYNAWAFHYSLYWFTQIDVDFDSTFINNALSDFVGNYRYFFGKEGFPFFGRSACYRLAAAAPLLAAVDLQSDKITIGEAKRAFHCNLKYFISNGALKAGLPTQGLFDEDVRLVDNYSGPASSLWSLRALNIALFCGEKINLWQAEEAPLAIEQGNFELDISAINMKILGVYETQEVIAIFKNEYTQDQSPLSRRLLAPSRWEQTIEKITGRANRPKNNLLRKGITCYSSKMESFFLEHHHHHH	not soluble
MKVRRTEQIYLKENDTISYMCHLSKNLYNQVNYILRQQFLKGEKLTGYRDLVKLFQEPSEIEDHNNYQRLPAQTAQWTVKKTVMAWYSFFKSMKAWKKHPDKFKGRPRLPGYKETDGEFLLVFTNQQCRIRDGILKFPKIMNMEVKTRLNENEIKLKEVRIVPQGTGYMIEIVYEKETADMPITKPKRAMGIDIGVRNLVTIGNNIHEIGIAVKAGLLKSINQYFNKELARYRSINDLQGNERKQTVKIRKLFMKRNRKVKDIMHKVSKSIVEYAKIMNIDTIVIGHNNRWKDSSNMGKKNNQNFVQLPFNMLIYQIKYKAEEIGITVIMQNEDYTSKCSFLDNESIEHHDTYMGKRIHRGIFRSATGKLIHADLQSSYNIIKKAIPEAFANGIEGIGLYPRSLSIRQMITSKGGCLEHHHHHH	not soluble
MKVTFMNLEERKKLETKSIDELDLIGKKVCVDTCVVIDGRITELIERGKLKDATIIIPEAVVSELEYQANMGREIGYKGIEELRKLIEKASEHNIKVEYYGERPTREEIFLAKSGEIDAMIRKVAKETNSILLTSDWIQYNLAKAQGIEAYFLEAAEEEVELVLD	not soluble
MKVTKADIVISAVKPEQYPDGDLPEIALAGRSNVGKSSFINKILNRKKLVRISSKPGKTQTLNFFLINEMMHFVDVPGYGYAKVSKTERAAWGKMIETYFTTREQLDAAVLVVDLRHKPTNDDVMMYDFLKHYDIPTIIIATKADKIPKGKWQKHLKVVKETLDIESGDEVVLFSSETGLGKEEAWKAIHKFTKTKNA	not soluble
MKVTSLDGRQLRKMLRKEAAARCVVLDCRPYLAFAASNVRGSLNVNLNSVVLRRARGGAVSARYVLPDEAARARLLQEGGGGVAAVVVLDQGSRHWQKLREESAARVVLTSLLACLPAGPRVYFLKGGYETFYSEYPECCVDVKPISQEKIESERALISQCGKPVVNVSYRPAYDQGGPVEI	not soluble
MKVYVVVPTYNESDNIVALMEKILAQRDNIHVLVVDDNSPDGTGEIAARMSSDNPRIHVLRRSGKMGLGSAYCDGFRVALRDGADFIIEMDADFSHDPATIPALLAATDKYDVVVGSRYLNGVSVVNWPIRRLMLSYFASVYTRFVTGLALRDCTSGFKCFRRRVIESVDLDTIRSDGYSFQIEMNYRCVERGFRVGEIPIIFIDRHAGSSKMSKKIVREAVLMVWKLKLGSLVKKLTRRGDRHAALEHHHHHH	soluble
MKWDEYVDIFDTDVVSKIIILRNLPINEGWIDINELAEELQLNKKSVKKYVELLKDDITYYVVDNDASLAFEKGHGYRLNLASSQAFQKLYTAIFRDSLTYQVMEDLFWGRFNGIVPATAKYHTSDATIRRLLKGFTEILAPLGLVINKSTWKIEGNEAYLRHFAYTIFMDLIRDTWPFDYIQETEVAQTVQKMMAFFNVEVAETVTRRVKYMVAISKVRSAQGAEYRPSAEQETYLEGNKHYQAFIEEMTATTLFLNKNDLTFVYFFLLANDQFYQDEATAQAILAHFDETEAPVYMLTHLVQHFLLEEIHMTPQLEKIRPQIFYYLFATHLFAELYYVQNVKMYNVFWNKIKEKYPVLLAELIQGLNQLYEQTGNELFTNKEFLALRYSSVLALSNDLIHREQKIVLGLKSGLPVLEEERVKLSIENNFRRFYALEVLRYSEASKEEWQNIDLLLVTSLADVETGHPEIFLFSSELTFEQYNRLNQKIVKINEKRTTSL	not soluble
MKWRCLIYIETRGDILFMTKWFNVGKIVNTHGVRGEIRVISRTDFPEERYKVGNTLYISNEKGTDYLPVKVTSHRQHKTFDLLTFEGYNNVDEVEKFKGSLIKVPEEQLGELAEGEYYYHEIIGCSVVTEEGEALGTIKEILSPGANDVWVIKRPKGQDLLIPYIDDVVLQVNIENKLVTIHVMEGLLLEHHHHHH	soluble
MKWSEYANLAQQSLEKFYLADTKEQFLNNFYPTENPEEDNKVFNYWWLAHLVEVRLDAYLRTKKQADLEVAEKTYLHNKNRNGGTLIHDFYDDMLWNALAAYRLYKATGKSIYLEDAQLVWQDLVDTGWNDIMGGGFAWRRPQMYYKNTPVNAPFIILSCWLYNELNETKYLEWAMKTYEWQTKVLVREDGFVEDGINRLEDGTIDYEWKFTYNQGVYIGANLELYRITKEAKYLDTANKTAAISLKELTEDGIFKDEGNGGDEGLFKGIFYRYFTDLIEETANKTYRDFVLNSCQILVENAKLDGYLLMGMNWKEKPSGKIPYSAELSGMIALEMAAKLELEHHHHHH	soluble
MKYDLIIIGSGSVGAAAGYYATRAGLNVLMTDAHMPPHQHGSHHGDTRLIRHAYGEGEKYVPLVLRAQMLWDELSRHNEDDPIFVRSGVINLGPADSTFLANVAHSAEQWQLNVEKLDAQGIMARWPEIRVPDNYIGLFETDSGFLRSELAIKTWIQLAKEAGCAQLFNCPVTAIRHDDDGVTIETADGEYQAKKAIVCAGTWVKDLLPELPVQPVRKVFAWYQADGRYSVKNKFPAFTGELPNGDQYYGFPAENDALKIGKHNGGQVIHSADERVPFAEVVSDGSEAFPFLRNVLPGIGCCLYGAACTYDNSPDEDFIIDTLPGHDNTLLITGLSGHGFKFASVLGEIAADFAQDKKSDFDLTPFRLSRFQ	soluble
MKYIVLLGDGMSDEPMQELGGKTPLQAARTPHMDAMARRGRIGLARTVPEGYPPGSDVANLSVFGYDPRACYTGRSPLEAASMGVELGSADVAFRVNLVNLAPTRGTLVMNDYSAGHISTAEGRELIEAIQGVMGTDEFQFYPGVGYRHLMVWRNGKCGMTVVPPHDISGQSILEHLPKGEGAERLIELMNSSQLVLNNHPQYRRRLEEGKVPANSIWLWGHGKAPRMASFHEKFGLTGAVISAVDLVRGIGVCAGLDVIKVEGATGYIDTNYEGKVTAALEALEAHDYVYLHVEAPDEAGHGGNLEHKLKAIEDFDARVVGPIMAGMEKFGSYRILCTPDHPTPLRLKTHTDAPVPFVLFSGETSENAGVAGYDEESARSAGLVVEDGFRLMEMMLDRLEHHHHHH	soluble
MKYPQVWDLDTFFKGGSQSSDFQHFVKETEELVDKLVASTSAKMTLAQLVNELVNVQKVMQRLRHGAAFVSCLKAQNVKDEHAFQWQGKLNELQAKLQNIWVELEATFGRMEDGEWQELLNHPQLSDITFSLNERRQAAAEKLAPEQEKLVAQLAVDGYHAWGEVYNQAVGRMEIPFEEDGETKRLSP	not soluble
MKYTKGTYSSSAKGHSSNVNLTVNFDSDKIKNVSINVEGETSQRNKDVVSQLSAQILKKQDDSLDAVTGATETSNAVRRALTDCIKQATGDTENQTKTPLKDGTYTETVPSYSLIAPMTGEVTIKNNKIKNIKITSEKDSQTSPWFHVAEKKFIPRLIESQSLDTDAVTGASVSSGAIKSIAEKAIKDAGGNNDEWHTPVTKKNDTVEKKDFDVIVVGLGGSGILSYCAAAKSGAKVFGLDIAAGIGGNSISTSGPMVVNSKIQSKKYNDGKDNIDPEDLYNTWIDYVKTDKKAAVIKKAIYEDGPALDYYMKNFGFSFDSPAFGMPAGYFPSFVRQDWTKEWAVYTAKDNKWYSAGQPVHIDQYQNALDKAKGMNPVNDYQLELAAKDFIKDDSGKVIGVKAVSYDGTTYNIYGRAVILASGGFVGNNQMMKDVYGHTCHTFGSTTAKGQGIKMGQSIGGNTYALRTLPMIHISQVPNIIRDDSLTPDQKATLSALAITSDAKQIDETGNILGSKDESGIEESKLTVGIAYAPGFHYFNAYTKEDLDKMKNEGVSETTSKVVVIILDQGGKVPAAHTPIKDIDKIVDEAIKHGDAWKGTPSELAKQLNMDEAKLTKSLGDPNKEYYLFEAAGYAYATCGGLDVDEDMNVLRQDGSKIENVFAVGQDSEGVENRNDEAYTPWGGQAQAWTFVSGKIAGENAAKILEHHHHHH	soluble
MLADKESLIEALKLALSTEYNVKRNFTQSVEIILTFKGIDMKKGDLKLREIVPLPKQPSKAKRVLVVPSSEQLEYAKKASPKVVITREELQKLQGQKRPVKKLARQNEWFLINQESMALAGRILGPALGPRGKFPTPLPNTADISEYINRFKRSVLVKTKDQPQVQVFIGTEDMKPEDLAENAIAVLNAIENKAKVETNLRNIYVKTTMGKAVKVKR	soluble
MLAEIKGLNEECGVFGIWGHENAAQVSYYGLHSLQHRGQEGAGIVVNNGEKIVGHKGLGLISEVFSRGELEGLNGKSAIGHVRYATAGGSEVANVQPLLFRFSDHSMALAHNGNLINAKMLRRELEAEGSIFQTSSDTEVLLHLIKRSTKDSLIESVKEALNKVKGAFAYLLLTGNEMIVALDPNGFRPLSIGKMGDAYVVASETCAFDVVGATYIRDVEPGELLIINDEGIHVDRFTNEVDHAICSMEYIYFARPDSNIAGINVHAARKNMGKRLAAEAPIEADVVTGVPDSSISAAIGYAEATGIPYELGLIKNRYVGRTFIQPSQELREQGVKMKLSAVRGVVEGKRVVMIDDSIVRGTTSKRIVRMLREAGATEVHVRIASPPLKYPCFYGIDIQTRKELIAANHTVEEIREMIGADSLTFLSEDGLVDAIGRPYEGKYGGLCMAYFNGDYPTALYDYEQELLESMK	not soluble
MLAGLGEGGRVYIADLAIGPVALRDDGSIEEYELFPRSVDEAVTEALRLEEEGFTLAHEKLGKKLVESGVGSLVVESEDTARHFSKLGLSVKVEPGNNVALSARERLVSLGVELGFFGSEDDALSWLYEVEVEYTRRKLRGAAQKRDMLAAQAIRAIDDIDKTVNLFVARLREWYSIHFPELNDLVREHEDYVKIVSAVGHRDNITVERLVDLGFSEEKARRIAEAAKQSIGADLSEIDIQAVQTLARITSELYQLRRRLTEYIEQVMNEVAPNITALVGPLLGARLISLAGGLDKLARMPASTIQVLGAEKALFRALRTGGKPPKHGIIFQYPDIHRSPKWQRGKIARALAAKLAIAAKVDAFTGRFIGDKLREELRRRIAEIKKIYAKPPKRKREEKPPQPRRARPPRRGRPPRRRRGGRRLEHHHHHH	soluble
MLASAILPVVSFAESDPLDVLLKKLEEKGVITKEEAKEVKKVAKKHPHLKVKIRLQPRIDFGDIYKENNDYKSRSDFYFRRVRLEISKEWKNIPFGKKLKINFTLHSDKGERDYDYKKGEKEHHSFDPKVKYAYADWTFVDEFAVRIGKNKIPYSRVSLTSSSRQLLIERPYVTEDAKKWLGDYDSNQIMFHGKVAGGIFRYMLSIWDGSTIESKNKTGGTVKADTSLGDAYAIRLEFSPPGFVEKKKDDTGIGEKNKGDVISVGLNYAKNSDFDITDKNIKNEEATVWGGDIFGRFHLGPGALVAQAEYVKMKYDKLDLEEKGYYIQAGYLIPTPYGKFEPAARYEHFKQEDKKNDVTKHKKDIITLGFNHYIKGHKIKWGYNVLFIDNKEKDEKDQTVHQIQMQFYF	not soluble
MLAVSGLARSTFFDHQRRLDKPDKYADLKEQITTIFHDSNATFGYRRIWRALRNNNTIVNKKVVQRLMREQGLVSKIRRKKYNSYRGTVSHIADNVLGRRFIQDAPNKVWVSDVTEFRVAGTKVYLSPVMDLFDRTILAHTLSTSPNTQLTSRSLADAIAMFSPGKGLIVHTDQGFQYQHASWRTLIKSVGGVQSMSRKGNCYDNAVMENFFGHLKSEMYYGASFTSVDELCQAIDEYILWYNTYRLQERFKGLAPMQYRNQTLAKTLTV	not soluble
